{"source": "paper PMC12406181", "about": "(2025)", "binders": {"B1": {"name": "A9-PEG-A9 dimer (peptide)", "chain": "QDVNTAVAW", "modifications": "not fully specified; two A9 chains N-terminally linked via PEG (1 kDa), C-terminal amide; HER2-DIVMP is a synthetic two-chain disulfide-linked peptide"}}, "molecular_target": "T1, HER2-DIVMP (HER2 domain IV model receptor) domain IV fragment (Homo sapiens, UniProt P04626)", "T1 chain": "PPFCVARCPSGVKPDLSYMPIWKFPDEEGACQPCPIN", "assay": "fluorescence spectroscopy titration"}
{"binder": "B1", "values": [{"measurement": "Kd", "result": 5.7, "unit": "nM"}]}
